The values below come from PMC6608630, “The structural characterization of a glucosylglycerate hydrolase provides insights into the molecular mechanism of mycobacterial recovery from nitrogen starvation” (IUCrJ, 2019).

Substrate in data set [1]: O=C(O)[C@@H](CO)O[C@H]1O[C@H](CO)[C@@H](O)[C@H](O)[C@H]1O
Kind of data set: released glucose by glucose oxidase assay; allosteric sigmoidal fit. The conditions noted are these: 20 mM sodium phosphate pH 6.0, 100 mM KCl, 5 mM MgCl2, 50 °C, Hill h 1.77, tag-less enzyme. The data set is classed as biochemical, Mycolicibacterium hassiacum. From the text: released glucose by glucose oxidase assay; allosteric sigmoidal fit on MhGgH (M. hassiacum glucosylglycerate hydrolase)

Substrate in data set [2]: O=C(O)[C@@H](CO)O[C@H]1O[C@H](CO)[C@@H](O)[C@H](O)[C@@H]1O
Kind of data set: released mannose by K-MANGL assay kit; allosteric sigmoidal fit. The format is biochemical, Mycolicibacterium hassiacum. The conditions noted are these: 20 mM sodium phosphate pH 6.0, 100 mM KCl, 5 mM MgCl2, 50 °C, Hill h 1.29, tag-less enzyme, rough estimation, incomplete kinetic curve. From the text:
released mannose by K-MANGL assay kit; allosteric sigmoidal fit on MhGgH (M. hassiacum glucosylglycerate hydrolase)

B1: MhGgH (M. hassiacum glucosylglycerate hydrolase) (Mycolicibacterium hassiacum DSM 44199) (protein)
chain: MPHDPSFTPTQLAARAAYLLRGNDLGTMTTAAPLLYPHMWSWDAAFVAIGLAPLSVERAVVELDTLLSAQWRNGMIPHIVFANGVDGYFPGPARWATATLADNAPRNRLTSGITQPPVHAIAVQRILEHARTRGRSTRAVAEAFLDRRWGDLMRWHRWLAECRDRNERGRITLYHGWESGMDNSPRWDSAYANVVPGKLPEYQRADNVIITDPSQRPSDGEYDRYLWLLEEMKAVRYDDERLPSVMSFQVEDVFFSAIFSVACQVLAEIGEDYKRPHADVKDLYLWAERFRAGVVETTDQRTGAARDFDVLAEKWLVTETAAQFAPLLCGGLPHDRERALLKLLEGPRFCGHPDLKYGLIPSTSPVSRDFRPREYWRGPVWPVLTWLFSWCFARRGWAERARLLRQEGLRQASDGSFAEYYEPFTGEPLGSMQQSWTAAAVLDWLG
notes: full-length from pETM11-MhGgH, N-terminal His tag removed with TEV protease leaving Gly-Ala dipeptide; E. coli BL21(DE3); homotetramer; last residue Gly446
As for B1, in data set [1], the K0.5 came to 9.36 ± 0.69 mM and the Vmax was determined as 3.6 µmol/min/mg. Besides, in data set [2], the K0.5 is on record as 84.18 ± 30.27 mM and the Vmax was 3.09 µmol/min/mg.

The Vmax is the top rate of the reaction or transport when substrate is in excess.
